Experimental data: the nanobody polyreactivity screen of Harvey et al. (2022)

Test: yeast display, Sf9 membrane polyspecificity reagent, FACS + sequencing; frameworks hold sequencing errors
Method in brief: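 In a synthetic yeast display library (Saccharomyces cerevisiae BJ5465), nanobody expression was induced with galactose for 36–48 hours. FACS gates were set low and high (top ~1%) using anti-HA fluorescence for expression and streptavidin fluorescence for binding of the Sf9 membrane reagent. Each polyreactivity label is drawn from the gate of origin.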
With “QVQLVESGGGLVQAGGSLRLSCAASGRTLKYNAMGWYIQAPGKERELVAGISWSGTRTYYADSVKGRFTISRDIAKNTVYLQMNSLKPEETAVYYCAAYSYLYRSSGFRYNYWGQGTPVTVSS” the “polyreactivity (PSR sort gate)” value was “high polyreactivity”. For “QVQLVESGGGLVQAGGSLRLSCAASGRTLLQYTKGWYRQAPGKERELGAAISWSGGRTYYADSVKGRFTISRDNAKNTVYLQMNSLKPEDTAVYYCAARGLKSQYYGAKHEYGYWGLGTQVTVSS”, the “polyreactivity (PSR sort gate)” value was “high polyreactivity”. In the case of “QVQLVESGGGLVQAGGSLRLSCAASGRTLNRNAMGWYRQAPGKERELVAAISRRGGSTNYADSVKGRFTISRDNAKNTVYLQMNSLKPEDTAVYYCARVTTVYDGRGFVDVKRGYWGQGTQVTVSS”, the “polyreactivity (PSR sort gate)” value is reported as “high polyreactivity”. With “QVQLVESGGGLVQAGGSLRLSCAASGRTLPEYVMGWYRQAPGKERELVAAITTAGSTNYADSVKGRFTISRDNAKNTVYLQMNSLKPEDTAVYYCNAYPASRGPGNPLDDYWGQGTQVTVSS” the “polyreactivity (PSR sort gate)” value was “low polyreactivity”. In the case of “QVQLVESGGGLVQAGGSLRLSCAASGRTLPKYVMGWYRQAPGKERELVAAISSSGDSTYYADSVKGRFTISRDNAKNTVYLQMNSLKPEDTAVYYCGKYDLNTYGYWGQGTQVTVSS”, the “polyreactivity (PSR sort gate)” value is reported as “low polyreactivity”. With “QVQLVESGGGLVQAGGSLRLSCAASGRTLPSNTMGWYRQAPGTERELVAAISKNGGSTYYADSVKGRFTISRDNAMNTVYLQMNSLKPEDTAVYYCNARYLYGRYRSPLDDYWGQGTQVTVSS” the “polyreactivity (PSR sort gate)” value was “high polyreactivity”. For “QVQLVESGGGLVQAGGSLRLSCAASGRTLPYYMRWYRQAPGKERELVAAITNGDSTYYADSVKGRFTISRDNAQNTVYLQMNSLKPEDTAVYDCAARQKVPPQYWGQGTQVTVSS”, the “polyreactivity (PSR sort gate)” value was “high polyreactivity”. For “QVQLVESGGGLVQAGGSLRLSCAASGRTLQGYAMGWYRQEPGKERELVAAISRGGGSTYADSVKGRFTISRDNAKNTVYLQMNSLKPEDTAVYYCNKKSYYRYYWGQGTQVTVSS”, the “polyreactivity (PSR sort gate)” value was “high polyreactivity”. In the case of “QVQLVESGGGLVQAGGSLRLSCAASGRTLQIYVMGWYRQAPGKERELVASITGRGGSTYYADSVKGRFTISRDTAKNTVYLQMNSLKPEDTAVYYFARRYYRLDYWGQGTQVTVSS”, the “polyreactivity (PSR sort gate)” value is reported as “high polyreactivity”. For “QVQLVESGGGLVQAGGSLRLSCAASGRTLRAYAMGWYRQAPGKERELVAAITWSGGSTYYADSVKGRFTISRDTAKNTVYLQMNSLKPEDTAVYYCNARSYPDLYDYWGQGTQVTVSS”, the “polyreactivity (PSR sort gate)” value was “low polyreactivity”. In the case of “QVQLVESGGGLVQAGGSLRLSCAASGRTLRGYAMGWYRQAPGKERELVARITGSGGSTYADSVKGRFTISRDNAKNTVYLQMNSLKPEDTAVYYCAAGYSIYYYYAYTISRVSYDYWGQGTQVTVSS”, the “polyreactivity (PSR sort gate)” value is reported as “high polyreactivity”. For “QVQLVESGGGLVQAGGSLRLSCAASGRTLRINAMGWYRQAPGKERELVAAISRSGGRTYYADSVKGRFTISRDNAKNTVYLQRNSLKPEDTAVYYCATGGVAYNYGWGQYYYWGQGTQVTVSS”, the “polyreactivity (PSR sort gate)” value was “high polyreactivity”. With “QVQLVESGGGLVQAGGSLRLSCAASGRTLRIYAMGWYRPAPGNERELVAAITGSGGSTDYADSVKGRFTISRDNAKNTVYLQMNILKPEDTAVYYCNAGKTIDYRDGVGYDHWGQGTQVTVSS” the “polyreactivity (PSR sort gate)” value was “low polyreactivity”. In the case of “QVQLVESGGGLVQAGGSLRLSCAASGRTLRLYAMGWYRQAPGKERELVAAISSRGRTYYADSVKGRFTISRDNAKNTVYLQMNSLKPEDTAVYYCAVVVYQGFRSKYYYWGQGTQVTVSS”, the “polyreactivity (PSR sort gate)” value is reported as “high polyreactivity”. For “QVQLVESGGGLVQAGGSLRLSCAASGRTLRRYAMGWYRQAPGKERELVADISWRGTSTNYADSVKGRFTISRDNAKNTVYLQMNSLKPEDTAVYYCAAKQTYTRLHYLGPSVWDNYDYWGQGTQVTVSS”, the “polyreactivity (PSR sort gate)” value was “high polyreactivity”. With “QVQLVESGGGLVQAGGSLRLSCAASGRTLRYYAMGWYRQAPGKERELVATISRAGRTNYADSVKGRFTISRDNAKNTVYLQMNSLKPEDTAVYYCAAGRVVYSYSDNYDYWGQGTQVTVSS” the “polyreactivity (PSR sort gate)” value was “high polyreactivity”. In the case of “QVQLVESGGGLVQAGGSLRLSCAASGRTLRYYAMGWYRQAPGKERELVATITGSGGSTYYADSVKGRFTISRDNAKNTVYLQMNSLKPEDTAVYYCNARKVRYPYRWYDYWGQGTQVTVSS”, the “polyreactivity (PSR sort gate)” value is reported as “high polyreactivity”. In the case of “QVQLVESGGGLVQAGGSLRLSCAASGRTLSANAMGWYRQAPGKERELVATISTRGGRTYYADSVKGRFTISRDNAKNTVYLQMNSLKPEDTAVYYCAVTIRAKYTLKEDYWGQGTQVNVSS”, the “polyreactivity (PSR sort gate)” value is reported as “low polyreactivity”. With “QVQLVESGGGLVQAGGSLRLSCAASGRTLSFYAMGWYRQAPGKERELVAAISRRGGSTYYADSVKGRFTISRDNAKNTVYLQMNSLKPEDTAVYYCAARRWYPYKNYDYWGQGTQVTVSS” the “polyreactivity (PSR sort gate)” value was “high polyreactivity”. In the case of “QVQLVESGGGLVQAGGSLRLSCAASGRTLSGNAMGWYRQAPGKERELVASISTSTDGTYYADSVKGRFTISRDNAKNTVYLQMNSLKPEDTAVYYCTTTTYHWYYYRWEIFDYWGQGTQVTVSS”, the “polyreactivity (PSR sort gate)” value is reported as “low polyreactivity”. In the case of “QVQLVESGGGLVQAGGSLRLSCAASGRTLSVYAMGWYRQAPGKERELVAAITKSGGSTYYADSVKGRFTISRDNAKNTVYLQMNSLKPEDTAVYYCAAEGDWRGYALYNYWGQGTQVTVSS”, the “polyreactivity (PSR sort gate)” value is reported as “low polyreactivity”. In the case of “QVQLVESGGGLVQAGGSLRLSCAASGRTLSWYAMGWYRQAPGKEREFVAAITSSGASTYYADSVKGRFTISRDNAKNTVYLQMNSLKPEDTAVYYCAAEAVYVSSWYDEYYYFRYDYWGQGTQVTVSS”, the “polyreactivity (PSR sort gate)” value is reported as “high polyreactivity”. For “QVQLVESGGGLVQAGGSLRLSCAASGRTLSYYAMGWYRQAPGKERELVAAIRHSAGSTYYADSVKGRFTISRDTAKNTVYLQMNSLKPEDTAVYYCAKKYYGHRYPSIYDYWGQGTQVTVSS”, the “polyreactivity (PSR sort gate)” value was “high polyreactivity”. In the case of “QVQLVESGGGLVQAGGSLRLSCAASGRTLTAYAMGWYRQAPGKERELVAAISVTGDNTYYADSVKGRFTISRDNAKNTVYLQMNSLKPEDTAVYYCDARKQYKYGYWGQGTQVTVSS”, the “polyreactivity (PSR sort gate)” value is reported as “low polyreactivity”. With “QVQLVESGGGLVQAGGSLRLSCAASGRTLTGNAMGWYRPAPGKERELVAVISYSGTNTRYADSVKGRFTISRDNAKNTVYLQMNSLKPEDTAVYYCAADWLGISVVRDPFDHWGQGTQVTVSS” the “polyreactivity (PSR sort gate)” value was “high polyreactivity”. In the case of “QVQLVESGGGLVQAGGSLRLSCAASGRTLTGNAMGWYRQAPGKERELVAVISYSGTNTRYADSVKGRFTISRDNAKNTVYLQMNSLKPEDTAVYYCAARRPAPNYSSRYDYWGQGTQVTVSS”, the “polyreactivity (PSR sort gate)” value is reported as “high polyreactivity”. For “QVQLVESGGGLVQAGGSLRLSCAASGRTLTIYAMGWYRQAPGKERELVATIRSSGSTNYADSVKGRFTISRDNAKNTVYLQMNSLKPEDTAVYYCAARGNTPRTRRYGYWGQGTQVTVSS”, the “polyreactivity (PSR sort gate)” value was “high polyreactivity”. For “QVQLVESGGGLVQAGGSLRLSCAASGRTLVHYAMGWYRQAPGKERELVAAISIGGDSTYAVSVKGRFTISRDNAKNTVYLQMNSLKPEDTAVYYCAASGWWDFFDPYFKFDYWGQGTQVTVSS”, the “polyreactivity (PSR sort gate)” value was “low polyreactivity”. In the case of “QVQLVESGGGLVQAGGSLRLSCAASGRTLVWYTMGWYRQAPGKEREFVAVITTGSGSTYYADSVKGRFTISRDNAKNTVYLQMNSLKPEDTAVYYCNAGYGGYSYHYPPYEYWGQGTLVTVSS”, the “polyreactivity (PSR sort gate)” value is reported as “low polyreactivity”. For “QVQLVESGGGLVQAGGSLRLSCAASGRTLVYYAMGWYRQAPGKERELVAAITWRGGRTYYADSVKGRFTISRDNAKNTVYLQMNSLKPEDTAVYYCAKDGGHTGDYWGQGTQVTVSS”, the “polyreactivity (PSR sort gate)” value was “low polyreactivity”. In the case of “QVQLVESGGGLVQAGGSLRLSCAASGRTLYANTMGWYRPAPGKERELVATIPRDGSTNYADSVKGRFTISRDTAKNTVYLQMNSLKPEDTAVYYCNADLWVNLDNDDDYWGQGTQVTVSS”, the “polyreactivity (PSR sort gate)” value is reported as “low polyreactivity”. For “QVQLVESGGGLVQAGGSLRLSCAASGRTLYHYGMGWYRQAPGKERELVAAINFSGGSTNYADSVKGRFTISRDNAKNTVYLQMNSLKPEDTAVYYCNNEGRPDRDYWGQGTQVTVSS”, the “polyreactivity (PSR sort gate)” value was “low polyreactivity”. For “QVQLVESGGGLVQAGGSLRLSCAASGRTLYLYAMGWYRQAPGKERELVAAIDWRGTSTYYADSVKGRFTISRDNAKNTVYLQMNSLKPEDTAVYYCNAEGRWSSFTQRMDYWGQGTQVTVSS”, the “polyreactivity (PSR sort gate)” value was “low polyreactivity”. For “QVQLVESGGGLVQAGGSLRLSCAASGRTLYQYAMGWYRQAPGKERELVAVITSRGGSTNYADSVKGRFTISRDNAKNTVYLQMNSLKPEDTAVYYCAVLYPKYGKRYGYWGQGSQVTVSS”, the “polyreactivity (PSR sort gate)” value was “high polyreactivity”. In the case of “QVQLVESGGGLVQAGGSLRLSCAASGRTLYRYAMGWYRQEPGKERELVAAIRSGGRTNYADSVKGRFTISRDNAKNTVYLQMNSLKPEDTAVYYCAARTLRYPSTYDYWGQGTQVTVSS”, the “polyreactivity (PSR sort gate)” value is reported as “high polyreactivity”. With “QVQLVESGGGLVQAGGSLRLSCAASGRTLYYNPMGWYRQAPGKEREFVAAISYSGGGTYYADSVKGRFTISRDNAKNTVYLQMNSLKPEDTAVYYCNARIRRPYRVTAEYDYWGQGTQVTVSS” the “polyreactivity (PSR sort gate)” value was “high polyreactivity”. With “QVQLVESGGGLVQAGGSLRLSCAASGRTLYYYAMGWYRQAPGKERELVAAITRSGGSTYYADSVKGRFTISRDNAKNTVYLQMISLKPEDTEVYYFNKYGYKGGLGYDYWGQGTQVTVSS” the “polyreactivity (PSR sort gate)” value was “high polyreactivity”. For “QVQLVESGGGLVQAGGSLRLSCAASGRTNWTYVMGWYRQAPGKERELVAAISRSGSSTYYADSVKGRFTISRDNAKNTVYLQMNSLKPEDTAVYYCNNVDGTTLDDHYMDYWGQGTQVTVSS”, the “polyreactivity (PSR sort gate)” value was “low polyreactivity”. In the case of “QVQLVESGGGLVQAGGSLRLSCAASGRTQTRYTMGWYRQAPGKERELVATISRSGGNTHYADSLKGRFTISRDNAKNTVYLQMNSLKPEDTEVYYCNAVRYAIYGYDYWGQGTQVTVSS”, the “polyreactivity (PSR sort gate)” value is reported as “high polyreactivity”. In the case of “QVQLVESGGGLVQAGGSLRLSCAASGRTSGFNTMGWYRQAPGKERELVAAISFSGGSTYYADSVKGRFTISRDNAKNTVYLQMNSLKPEDTAVYYCNALFRYLYRSGDYWGQGTQVTVSS”, the “polyreactivity (PSR sort gate)” value is reported as “low polyreactivity”. In the case of “QVQLVESGGGLVQAGGSLRLSCAASGRTSGNNAMGWYRQAPGKERELVAAITRGGRTYYADSVKGRFTISRDNAKNTVYLQLNSLKPEDTAVYYCAARRYFYLFGYYYWGQGTQVTVSS”, the “polyreactivity (PSR sort gate)” value is reported as “high polyreactivity”. For “QVQLVESGGGLVQAGGSLRLSCAASGRTSLGNAMGWYRQAPGKERELVAAISGSGGSTYYADSVKGRFTISRDNAKNTVYLQMNSLKPEDTAVYYCNKKLYGYQHYYWYYYWGQGTQVTVSS”, the “polyreactivity (PSR sort gate)” value was “high polyreactivity”. In the case of “QVQLVESGGGLVQAGGSLRLSCAASGRTSLLYAMGWYRQAPGKERELVATISIGGSTYYADSVKGRFTISRDNAKKTVYLQMKSRKPEDTAVYYCAADVWWFFQPSTLGDFEYWGQGTQVTVSS”, the “polyreactivity (PSR sort gate)” value is reported as “low polyreactivity”.
